Experimental data reported in paper PMC13137875.
Where “and” joins values, the source holds several entries; their conditions need not be identical. Equal values may be shown once.

Columns and labels:
[1] = biological target: Rabbit skeletal muscle actin (G-actin) (rabbit) (UniProt P68135); assay: SEC-SAXS
[2] = biological target: G-actin (Oryctolagus cuniculus) (UniProt P68135); details: cited from earlier work

## R. bellii MBP-Sca2/6 (maltose-binding protein tagged passenger domain of Sca2/6) (domain or fragment)
[1]
  stoichiometry N: 1

## Sca2 (from UniProt Q92JF7)
[2]
  Kd: 20 nM and 200 nM
